Earlier results on 1 substance are cited in article PMC4567495.

The term Kd denotes the concentration at which binding is half-saturated.

For data set [1], the target named is cardiac troponin I switch peptide 147-163 (Homo sapiens) (UniProt P19429). Put plainly: NMR.
For data set [2], the target named is cardiac troponin I switch peptide (Homo sapiens) (UniProt P19429). Put plainly: NMR.
Chain of cardiac troponin I switch peptide (Homo sapiens) (P19429 2-210): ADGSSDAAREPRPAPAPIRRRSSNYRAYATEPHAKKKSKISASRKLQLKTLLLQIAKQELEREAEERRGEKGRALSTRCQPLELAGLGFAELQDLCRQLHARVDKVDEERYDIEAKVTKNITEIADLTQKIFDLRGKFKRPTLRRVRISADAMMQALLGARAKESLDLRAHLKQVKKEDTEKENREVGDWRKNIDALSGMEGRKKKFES

In the case of “cardiac troponin C N-domain (from UniProt P63316)”, the Kd was 150 µM in data set [1] and greater than 2000 µM in data set [2].
